Literature values as cited in patent US20070264667A1, “Method and system for assaying transferase activity” (priority 2003, published 2007).

Key:
IRK = IRK (Homo sapiens, UniProt P06213); conditions: competitive inhibitor of IRK; ref (20); read-out: reported Km
EGF receptor kinase = EGF receptor kinase (Homo sapiens, UniProt P00533); conditions: ref (22)
Sequence of EGF receptor kinase (P00533 25-1210): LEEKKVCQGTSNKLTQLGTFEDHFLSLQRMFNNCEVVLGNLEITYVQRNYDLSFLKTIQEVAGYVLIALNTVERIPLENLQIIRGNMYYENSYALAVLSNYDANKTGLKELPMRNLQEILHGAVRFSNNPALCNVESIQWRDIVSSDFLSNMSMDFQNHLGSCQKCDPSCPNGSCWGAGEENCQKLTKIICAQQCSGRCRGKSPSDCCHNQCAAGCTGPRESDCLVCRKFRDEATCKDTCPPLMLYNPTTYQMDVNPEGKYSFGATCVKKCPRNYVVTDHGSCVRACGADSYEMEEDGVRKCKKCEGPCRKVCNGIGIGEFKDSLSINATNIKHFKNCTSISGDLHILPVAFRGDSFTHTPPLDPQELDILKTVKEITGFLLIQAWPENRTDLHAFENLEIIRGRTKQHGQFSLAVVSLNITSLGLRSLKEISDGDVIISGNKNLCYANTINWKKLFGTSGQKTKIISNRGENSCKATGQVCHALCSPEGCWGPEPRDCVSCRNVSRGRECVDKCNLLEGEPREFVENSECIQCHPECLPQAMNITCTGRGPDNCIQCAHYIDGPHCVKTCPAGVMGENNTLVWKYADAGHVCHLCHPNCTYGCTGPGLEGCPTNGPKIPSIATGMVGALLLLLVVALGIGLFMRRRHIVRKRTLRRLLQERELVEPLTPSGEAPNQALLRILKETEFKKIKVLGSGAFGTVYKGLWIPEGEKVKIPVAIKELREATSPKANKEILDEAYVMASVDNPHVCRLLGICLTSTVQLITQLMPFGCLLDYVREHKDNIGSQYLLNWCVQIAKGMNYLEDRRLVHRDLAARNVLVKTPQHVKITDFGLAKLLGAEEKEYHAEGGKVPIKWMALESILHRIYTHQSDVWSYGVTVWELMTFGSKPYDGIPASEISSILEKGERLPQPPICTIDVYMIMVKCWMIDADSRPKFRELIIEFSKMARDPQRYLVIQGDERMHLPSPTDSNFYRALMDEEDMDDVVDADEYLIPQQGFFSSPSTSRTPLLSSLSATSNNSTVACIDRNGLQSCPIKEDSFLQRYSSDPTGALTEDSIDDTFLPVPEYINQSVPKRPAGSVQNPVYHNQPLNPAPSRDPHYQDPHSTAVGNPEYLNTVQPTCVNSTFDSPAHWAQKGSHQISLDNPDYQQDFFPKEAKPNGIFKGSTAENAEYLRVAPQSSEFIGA

Compound: 1RS727: peptide inhibitor of IRK with the sequence KKKLPATGDYMNMSPVGD
- Km (IRK): ~24 µM

Compound: O=C(O)c1cc(N(Cc2ccccc2O)Cc2cc(O)ccc2O)ccc1O [Lavendustin A]
- Ki (EGF receptor kinase): 11 nM
